This note sets out measurements from the nanobody polyreactivity screen of Harvey et al. (2022).

The data set in a line: yeast display, Sf9 membrane polyspecificity reagent, FACS + sequencing; frameworks hold sequencing errors. The gist of the method: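 After 36–48 hours of galactose induction, yeast (Saccharomyces cerevisiae BJ5465) displaying a synthetic nanobody library were stained at 4 °C for 1 hour with 10% biotinylated, detergent-solubilized Sf9 membrane reagent. Streptavidin microbeads enriched the stained cells before FACS sorting into low and high (top ~1%) gates on anti-HA and streptavidin fluorescence. Each clone's polyreactivity label reflects its gate of origin.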
Turning to “QVQHVESGGGLVQAGGSLRLSCAASFYVYAMGWYRQAPGKERELVAAITYSGGGTYYADSVKGRFTISRDNAKKTVYLQMYSLKPEDTAVYYCNARATAYGWRGYAGFEFDYWGQGTQVTVSS”, the “polyreactivity (PSR sort gate)” value is reported as “low polyreactivity”. Then “QVQHVESGGGLVQAGGSLRLSCAASGFIFDCNTMGWYRQAPGKERELVATIDFSGTSTYYADSVKGRFTISRDNAKNTVYFQMNSLKPEDTAVYYCNAVRSGWGYFFCLNYWGQGTQVTVSS”, with “low polyreactivity”; and “QVQHVESGGGLVQAGGSLRLSCAASGFIFLYYAMGWYRQAHGQERELVAAISRSGGRTYYADSVKGRFTISRDTAKNTVYLQMNSLKPEDTAVYYCAADRLGSISGYDYWGQGTQVTVSS”, with “high polyreactivity”; and “QVQHVESGGGLVQAGGSLRLSCAASGFIFTANAMGWYRQAPGKERELVAGIRSGSSTYYADSVKGRFTISRDNAKNTVYLQLNSLKPEDTAVYYCNAEKFNFIYAYEYWGKGTQVTVSS”, with “low polyreactivity”.

On to “QVQHVESGGGLVQAGGSLRLSCAASGFIFTPYAMGWYRQAPGKEREFVASITWSGGSTNYADSVKGRFTISRDNAKNTVYLQMNSLKPEDTAVYYCNADTWSPNDYWGLGTQVTVSS”, for which the “polyreactivity (PSR sort gate)” value was “low polyreactivity”. Regarding “QVQHVESGGGLVQAGGSLRLSCAASGFIFWYYAMGLYRQAPGKERELVADISSGGSTNYADSVKGRFTISRDNAKNTVYLQMNSLKPDDTAVYYCAADTFRRDDYWGQGTQVTVSS”, the “polyreactivity (PSR sort gate)” value was “low polyreactivity”.

For the sequence “QVQHVESGGGLVQAGGSLRLSCAASGFTFVYYVMGWYRQAPGKERELVAAINAGGGSTYYADSVKGRFTISRDNAKNTVYLQMNSLKPEDTAVYYCNARVRVRLGRNWSSYYYWGQGTQVTVSS”, the “polyreactivity (PSR sort gate)” value is on record as “high polyreactivity”.

On to “QVQHVESGGGLVQAGGSLRLSCAASGFTFYGNSMGWYRPAPGKERELVAGISWRGGSTYYADSVKGRFTISRDNAKNTVYLQMNSLKPEDTAVYYCAAYLWTNYYLWEYDYWGQGTQVTVSS”, for which the “polyreactivity (PSR sort gate)” value is listed as “high polyreactivity”. On to “QVQHVESGGGLVQAGGSLRLSCAASGFTYVVYDMGWYRPAPGKERELVAVITNSGGSTYYADSEKGRFTISRDNAKNTVYLQMNSLKPEDTAVYYCNTENFYGSDIFDSWGQGTQVTVSS”, for which the “polyreactivity (PSR sort gate)” value is “low polyreactivity”. As for “QVQHVESGGGLVQAGGSLRLSCAASGGTFGSNTMGWYRQARGKERELVAAITSGVSTYYADSVKGRFTISRDNAKNTVYLQMNSLKPEDTAVFYCAADTTQVQGVEGDYWGQGTQVTVSS”, the “polyreactivity (PSR sort gate)” value is “low polyreactivity”. Consider “QVQHVESGGGLVQAGGSLRLSCAASGIIFRENALGWDRQAPGKERELVAGISSGGNTNYADSGKGRFTISRDNAKNPVYLQMNSLNPEDTAVYYCNTDWYLPRYVLLGYFSGTEDYWGQGTQVTLSS”, for which the “polyreactivity (PSR sort gate)” value is on record as “low polyreactivity”.

On to “QVQHVESGGGLVQAGGSLRLSCAASGIIFSYNAMGWYRQAPGKERELVAAISSGGRTYYADSVKGRFTISRDNAKNTVYLQMNSLKPEDTAVYYCATTSPHRLYGYYYDYWGQGSQVTVSS”, for which the “polyreactivity (PSR sort gate)” value was “high polyreactivity”.

Consider “QVQHVESGGGLVQAGGSLRLSCAASGITFSFYAMGWYRQAPGKERELVAAINGRGGRTYYADSVKGRFTISRDNAKNTVYLQMNSLKPEDTAVYYCAAVVWSTDYDYWGQGTQVTVSS”, for which the “polyreactivity (PSR sort gate)” value was “low polyreactivity”. Turning to “QVQHVESGGGLVQAGGSLRLSCAASGLIFYYYDMGWYRQPPGKERELVAAISYNGGTTYYSDSVKGRFTISRDNAKNTVYLQMNSLKPEDTAVYYCASEQLVSGYDYWGQGTQVTVSS”, the “polyreactivity (PSR sort gate)” value is “low polyreactivity”.

Consider “QVQHVESGGGLVQAGGSLRLSCAASGLIYSYYTMGWYRQAPGKERDLVAAITGSGGTTYYADSVKGRFTISRDNAKNTVYIQMNSLKPEDTAVYYCATPPPEVWQRWYREYDYWGQGTQVTVSS”, for which the “polyreactivity (PSR sort gate)” value is given as “low polyreactivity”. With “QVQHVESGGGLVQAGGSLRLSCAASGLTFYDYAMGWYRQAPGKERELVADIDFNGGSTSYADSVKGRFTISRDNAKNTVYLQMNSLKPEDTAVYYCAARIHGSWSFDYWGQGTQVTVSS”, the “polyreactivity (PSR sort gate)” value is on record as “low polyreactivity”. Consider “QVQHVESGGGLVQAGGSLRLSCAASGNIFYTNAMGWYRQATGKERELVAAISGSGGRTYYADSVKGRFTISRDNAKNTVYLQMNSLKPEDTAVYYCNAVRRDYYDRTYGYWGQGTQVTVSS”, for which the “polyreactivity (PSR sort gate)” value is “low polyreactivity”. Then “QVQHVESGGGLVQAGGSLRLSCAASGNTFLRYAMGWYIKAPGKERELVAAISRSGGSTYYADSVKGRFTISRDTAKNTVYLQMNSLKPEDTAVYYCAARRSSQPDKGYYYWGQGTQVTVSS”, with “high polyreactivity”.

With “QVQHVESGGGLVQAGGSLRLSCAASGRIFALYAMGWYRQAPGKERELVAAITSGSTYYADSVKGRFTISRDNAKNTVYLQMNSLKPEDTAVYYCAADLSYWRGGHSRNYWGQGTQVTVSS”, the “polyreactivity (PSR sort gate)” value was “low polyreactivity”. As for “QVQHVESGGGLVQAGGSLRLSCAASGRIFGYYTMGWYRQAPGKERELVATIDWSGDSTYYADSVKGRFTISRDNAKNTVYLQMNSLKPEDTAVYYCAKRYYLYHYDSWGQGTQVTVSS”, the “polyreactivity (PSR sort gate)” value is on record as “low polyreactivity”.

As to “QVQHVESGGGLVQAGGSLRLSCAASGRIFHYYAMGWYRQAPGKERELVAAITFRGGNTYADSVKGRFTISRDNAKNTVYLQMNSLKPEDTAFYYCADSRLSGYYSRYGYWGQGTQVTVSS”, the “polyreactivity (PSR sort gate)” value is listed as “high polyreactivity”. Turning to “QVQHVESGGGLVQAGGSLRLSCAASGRIFHYYAMGWYRQAPGKERELVATISRRGGTTYYADSVKGRFTISRDNAKNTVYLQMNSLKPEDTAVYYCAAKYFGTRYDYWGQGTQVTVSS”, the “polyreactivity (PSR sort gate)” value is given as “high polyreactivity”. As to “QVQHVESGGGLVQAGGSLRLSCAASGRIFVRNAMGWYIQAPGKERELVAAITSGASTYYADSVKGRFTISRDNAKYTVYFQMYSVKPEDTAVSYCAAQAVIASWWTVDYYYWGQGTQVTVSS”, the “polyreactivity (PSR sort gate)” value is recorded as “high polyreactivity”. Take “QVQHVESGGGLVQAGGSLRLSCAASGRIFYFNAMGWSSQAPGKERELVAAISGSGGDTYYADSVKGRFTISRDNAKNTVYLQMNSLKPEDTAVYYCAAEVYPWGQGTQVTVAS”: the “polyreactivity (PSR sort gate)” value was “low polyreactivity”. “QVQHVESGGGLVQAGGSLRLSCAASGRIFYGYAMGWYRQAPGKERELVAAISSSGGSTYYADSVKGRFTISRDIAKNTVYLQMNSLKPEDTAVYYCNAQRYRPGYWYDYWGQGTQVTVSS”: the “polyreactivity (PSR sort gate)” value is on record as “high polyreactivity”.

As for “QVQHVESGGGLVQAGGSLRLSCAASGRIFYSNTMGWYRQAPGKERELVAAITWRGGRTHYADSVKGRFTISRDNAKNTVYLQMNSLKPEDTAVYYCAARYIPIQYPSYRTWGGYSWGQGTQVTVSS”, the “polyreactivity (PSR sort gate)” value is “high polyreactivity”.

Turning to “QVQHVESGGGLVQAGGSLRLSCAASGRILIRNAMGWYRQAPGKERELVAAINRGGGSTYYADSVKGRFTISRDNAKNTVYLQMNSLKPEDTAVYYCAADRKAGYSRVDGDYWGQGTQVTVSS”, the “polyreactivity (PSR sort gate)” value is given as “low polyreactivity”.

For “QVQHVESGGGLVQAGGSLRLSCAASGRILVSYAMGWYRQAPGKERELVAAISRSGGSTYYADSVKGRFTISRDNAKNTVYLQMNCLKPEDTAVYYCATGLYIQSTYHRYERYNYWGQGTQVTVSS”, the “polyreactivity (PSR sort gate)” value is “high polyreactivity”. The result for “QVQHVESGGGLVQAGGSLRLSCAASGRIYAMGWYRQAPGKERELVARITKSGTSTYYADSVKGRFTISRDNAKNTVYLQMNSLKPEDTAVYYCNARYWGYWGDHYDYWGQGTQLTVSS” reads “high polyreactivity”; that for “QVQHVESGGGLVQAGGSLRLSCAASGRTFGRNAMGWYRQAPGKESEFVASINQRGGCTYYADSVKGRFTISRDIAKNTVYLQMNSLKPEDTAVYYCAKYVYVGYVRQVPYFRYDYWGQGTQVTVSS”, “high polyreactivity”.
